Measured values taken from PMC6120219.

Target: T1, human TRAP1 (TNF receptor-associated protein 1), full-length WT without mitochondrial signal sequence (human) (UniProt Q12931)
T1 sequence: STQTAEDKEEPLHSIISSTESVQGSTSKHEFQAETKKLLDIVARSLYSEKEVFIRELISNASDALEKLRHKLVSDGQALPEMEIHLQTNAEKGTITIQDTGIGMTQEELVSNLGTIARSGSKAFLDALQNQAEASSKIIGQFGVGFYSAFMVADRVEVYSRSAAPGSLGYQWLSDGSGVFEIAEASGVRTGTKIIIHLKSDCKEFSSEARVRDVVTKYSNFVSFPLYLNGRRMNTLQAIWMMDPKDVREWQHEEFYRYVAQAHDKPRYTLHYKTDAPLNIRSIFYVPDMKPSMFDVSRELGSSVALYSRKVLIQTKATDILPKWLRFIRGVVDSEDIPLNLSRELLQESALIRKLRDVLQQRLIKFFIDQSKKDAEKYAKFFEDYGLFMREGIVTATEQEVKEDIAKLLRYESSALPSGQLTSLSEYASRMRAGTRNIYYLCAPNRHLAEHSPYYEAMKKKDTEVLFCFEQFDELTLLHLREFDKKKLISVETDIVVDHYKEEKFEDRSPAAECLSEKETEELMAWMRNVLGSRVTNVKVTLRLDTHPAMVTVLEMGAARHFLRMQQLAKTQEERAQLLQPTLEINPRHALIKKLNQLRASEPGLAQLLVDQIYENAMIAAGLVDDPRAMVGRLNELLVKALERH

B1: human TRAP1 D158N point mutant (natural protein)
chain: STQTAEDKEEPLHSIISSTESVQGSTSKHEFQAETKKLLDIVARSLYSEKEVFIRELISNASDALEKLRHKLVSDGQALPEMEIHLQTNAEKGTITIQNTGIGMTQEELVSNLGTIARSGSKAFLDALQNQAEASSKIIGQFGVGFYSAFMVADRVEVYSRSAAPGSLGYQWLSDGSGVFEIAEASGVRTGTKIIIHLKSDCKEFSSEARVRDVVTKYSNFVSFPLYLNGRRMNTLQAIWMMDPKDVREWQHEEFYRYVAQAHDKPRYTLHYKTDAPLNIRSIFYVPDMKPSMFDVSRELGSSVALYSRKVLIQTKATDILPKWLRFIRGVVDSEDIPLNLSRELLQESALIRKLRDVLQQRLIKFFIDQSKKDAEKYAKFFEDYGLFMREGIVTATEQEVKEDIAKLLRYESSALPSGQLTSLSEYASRMRAGTRNIYYLCAPNRHLAEHSPYYEAMKKKDTEVLFCFEQFDELTLLHLREFDKKKLISVETDIVVDHYKEEKFEDRSPAAECLSEKETEELMAWMRNVLGSRVTNVKVTLRLDTHPAMVTVLEMGAARHFLRMQQLAKTQEERAQLLQPTLEINPRHALIKKLNQLRASEPGLAQLLVDQIYENAMIAAGLVDDPRAMVGRLNELLVKALERH
  Vmax of ATPase activity of the WT:D158N heterodimer mixture, ATP titration with CaCl2 (μM ATP min^−1/μM ATPase): 2.31
  Vmax of ATPase activity of the WT:D158N heterodimer mixture, ATP titration with MgCl2 (μM ATP min^−1/μM ATPase): 3.77
